Usually Kd stands for the equilibrium constant for the complex coming apart.

Our source for the Kd values is patent US20150259384A1.

In test [1] the target is Phosphorylated human Rb construct (residues 53-787, delta245-267, delta582-642, S780A) saturated with the … peptide (human) (UniProt P06400). Kind of test: isothermal titration calorimetry; E2F (~1 mM) titrated into ~50 uM phosphorylated Rb first saturated with the … peptide. For orientation: Isothermal titration calorimetry measures the heat released or taken up as one component is titrated into another.
Chain of Phosphorylated human Rb construct (residues 53-787, delta245-267, delta582-642, S780A) saturated with the … peptide (human) (P06400 other isoform, or with tags, fused parts or gaps S780A S780A limits assumed): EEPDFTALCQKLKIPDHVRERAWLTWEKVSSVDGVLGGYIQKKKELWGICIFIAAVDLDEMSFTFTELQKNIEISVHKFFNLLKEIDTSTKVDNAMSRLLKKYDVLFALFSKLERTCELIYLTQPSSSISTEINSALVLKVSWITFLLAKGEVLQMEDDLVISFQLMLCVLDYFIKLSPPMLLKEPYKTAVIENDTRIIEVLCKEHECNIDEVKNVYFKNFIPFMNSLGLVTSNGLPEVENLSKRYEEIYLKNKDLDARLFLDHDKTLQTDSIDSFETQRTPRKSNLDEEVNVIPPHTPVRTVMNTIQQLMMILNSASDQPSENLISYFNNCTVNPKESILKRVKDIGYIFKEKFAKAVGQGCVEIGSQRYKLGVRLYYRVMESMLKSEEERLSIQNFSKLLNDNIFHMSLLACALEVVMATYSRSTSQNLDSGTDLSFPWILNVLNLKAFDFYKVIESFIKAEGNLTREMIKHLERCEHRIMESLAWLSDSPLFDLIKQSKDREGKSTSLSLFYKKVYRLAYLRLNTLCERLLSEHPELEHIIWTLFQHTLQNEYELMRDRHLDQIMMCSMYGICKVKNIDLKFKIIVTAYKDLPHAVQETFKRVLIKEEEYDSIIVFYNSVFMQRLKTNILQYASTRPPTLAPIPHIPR

For test [2], the target named is Human Rb construct (residues 53-787, delta245-267, delta582-642, S780A), un-phosphorylated (human) (UniProt P06400). The test can be described thus: isothermal titration calorimetry; E2F (~1 mM) titrated into ~50 uM un-phosphorylated Rb.
Chain of Human Rb construct (residues 53-787, delta245-267, delta582-642, S780A), un-phosphorylated (human) (P06400 other isoform, or with tags, fused parts or gaps S780A S780A limits assumed): as above
Test [3] has as its target Human Rb construct (residues 53-787, delta245-267, delta582-642, S780A), phosphorylated with recombinant Cdk (human) (UniProt P06400). The test can be described thus: isothermal titration calorimetry; E2F (~1 mM) titrated into ~50 uM phosphorylated Rb.

Chain of Human Rb construct (residues 53-787, delta245-267, delta582-642, S780A), phosphorylated with recombinant Cdk (human) (P06400 other isoform, or with tags, fused parts or gaps S780A S780A limits assumed): as above

Regarding “Human E2F1 transactivation domain (residues 380-727) (from UniProt Q01094 380-437)”, the Kd in test [1] was found to be 0.7 µM; in test [2] it was 0.1 µM; in test [3], 3 µM.
